B1: HDV Ribozyme (parent)
chain: GGCCGGCAUGGUCCCAGCCUCCUCGCUGGCGCCGGCUGGGCAACAUUCCGAGGGGACCGUCCCCUCGGUAAUGGCGAAUGGGACCCA

Variants of: B1
Assay: self-cleavage, relative activity (ratio to wild type); higher = more cleavage; co-transcriptional

**Q.** Which self-cleavage does the source give for GGCCGGCAUGGUGCCAGCCUCCUCGCUGGCGCCGGCUGGGCAACAUUCCGAGGGGACCGUCCCAUCGGUAAUGGCGAAUGGGACCCA [C13G C64A] here?
**A.** 0.0396

**Q.** For GGCCGGCGUGGUCCCAGCCUCCUCGCUGGCGCCGGCUGGGCAACUUUCCGAGGGGACCGUCCCCUCGGUAAUGGCGAAUGGGACCCA [A8G A45U], which self-cleavage is on record?
**A.** 0.692

**Q.** For GGCCGGCAGGGUCCCAGCCUCCUCGCUGGCGCCGGCUGGGCAACAUUCCGUGGGGACCGUCCCCUCGGUAAUGGCGAAUGGGACCCA [U9G A51U], which self-cleavage is on record?
**A.** 1.22

**Q.** For GGCCGGCAUGGUGCCAGCCUCCUCGCUGGCGCCGGCUGGGCAACAUUCCGAGGGGAACGUCCCCUCGGUAAUGGCGAAUGGGACCCA [C13G C57A], which self-cleavage is on record?
**A.** 0.0554

**Q.** With GGCCGGCAUGGUCCCAGCCUCCCCGCUGGCGCCGGCUGGGCAACAUUCCUAGGGGACCGUCCCCUCGGUAAUGGCGAAUGGGACCCA [U23C G50U] as the variant, how does the self-cleavage read?
**A.** 0.789

**Q.** Which self-cleavage does the source give for GGCCGGCAUGUUCCCAGCCUCCUCGCUGGCGCCGGUUGGGCAACAUUCCGAGGGGACCGUCCCCUCGGUAAUGGCGAAUGGGACCCA [G11U C36U] here?
**A.** 0.138

**Q.** With GGCCGGCCUGGUCCCAGCCUCCUCGCCGGCGCCGGCUGGGCAACAUUCCGAGGGGACCGUCCCCUCGGUAAUGGCGAAUGGGACCCA [A8C U27C] as the variant, how does the self-cleavage read?
**A.** 0.739

**Q.** For GGCCGGCAUGGUACCAGCCUCCUCGCUGGCGCCGGCUGGGCAACAUUCCGAGGGGACCUUCCCCUCGGUAAUGGCGAAUGGGACCCA [C13A G59U], which self-cleavage is on record?
**A.** 0.356

**Q.** With GGCCGGCAUGGUCCCAGCCUCCUCGCUGGCGCCGGCUGGGCAACAUUCCGAGGGGACCGCCCCCUAGGUAAUGGCGAAUGGGACCCA [U60C C66A] as the variant, how does the self-cleavage read?
**A.** 1.14

**Q.** For GGCCGGCGUGGUCCCAGCCUCCUCGCUGGCGCCGGCUGGGCAACAUUCCGAGGGGACCAUCCCCUCGGUAAUGGCGAAUGGGACCCA [A8G G59A], which self-cleavage is on record?
**A.** 0.743

**Q.** For GGCCGGCAUGGUCCCAGCCUCCUCACUGGCGCCGGCUGGGCAACAUUCCGAGGGGACCGUCCCCUCGGUAAUGGCGAAUGGGACACA [G25A C85A], which self-cleavage is on record?
**A.** 0.237

**Q.** Which self-cleavage does the source give for GGCCGGCAUUGACCCAGCCUCCUCGCUGGCGCCGGCUGGGCAACAUUCCGAGGGGACCGUCCCCUCGGUAAUGGCGAAUGGGACCCA [G10U U12A] here?
**A.** 0.0831

**Q.** With GGCCGGCAUGGUCCCAUCCUCUUCGCUGGCGCCGGCUGGGCAACAUUCCGAGGGGACCGUCCCCUCGGUAAUGGCGAAUGGGACCCA [G17U C22U] as the variant, how does the self-cleavage read?
**A.** 0.0959

**Q.** For GGCCGGCAUGGUCCCAGCCUCCUCGCUGGCGCCGGUUGGGCAACAUUCCGAGGGGACCGUCUCCUCGGUAAUGGCGAAUGGGACCCA [C36U C62U], which self-cleavage is on record?
**A.** 0.911

**Q.** Which self-cleavage does the source give for GGCCGGAAUGGUCCCAGCCUCCUCGCUGGCGCCGGCUGGCCAACAUUCCGAGGGGACCGUCCCCUCGGUAAUGGCGAAUGGGACCCA [C7A G40C] here?
**A.** 0.102

**Q.** Which self-cleavage does the source give for GGCCGGCAUGGUCCCAGCCUCCUCGCUGGCGCCGGCUGGGCAACAUUCCCAGCGGACCGUCCCCUCGGUAAUGGCGAAUGGGACCCA [G50C G53C] here?
**A.** 0.18

**Q.** With GGCCGGCCUGGUCCCAGCCUCCUCGCUGGCGCCGGCUGGGCAACAUUCCGAGGGCACCGUCCCCUCGGUAAUGGCGAAUGGGACCCA [A8C G55C] as the variant, how does the self-cleavage read?
**A.** 1.03

**Q.** With GGCCGGCAUGGUCCCAGCCUCCUCGCAGGCGCCGGCUGGGCAACAUUCCGAGGGGACCGUCCCCUCGGUAAUGGCGAAUGUGACCCA [U27A G81U] as the variant, how does the self-cleavage read?
**A.** 0.502

**Q.** Which self-cleavage does the source give for GGCCGGCGUGGUCCCAGCCUCCUCGCUGGCGCCGGCUGGGCAACAUUCCGAGGGGAUCGUCCCCUCGGUAAUGGCGAAUGGGACCCA [A8G C57U] here?
**A.** 1.16

**Q.** With GGCCGGCAUGGUCCCAGCCUCCUCGAUGGCGCCGGCUGGGCAACAUUCCGAGGGGACCGUCCCCUCGGUAAUGGCGAAUGGGAACCA [C26A C84A] as the variant, how does the self-cleavage read?
**A.** 0.787

**Q.** With GGCCGGCAUGGGCCCAGCCUCCUCGCUGGCUCCGGCUGGGCAACAUUCCGAGGGGACCGUCCCCUCGGUAAUGGCGAAUGGGACCCA [U12G G31U] as the variant, how does the self-cleavage read?
**A.** 0.277

**Q.** For GGCCGGCAUGGUCCCAGCCUCCUCGCUGGCGCCGGCUGGGCAACAUUCAGAGGGGACCGUCCCCUCGGUAAUGGCGAAUGGGACUCA [C49A C85U], which self-cleavage is on record?
**A.** 0.811

**Q.** With GGCCGGCAUGGUCCCAGCGUCCUCGCUGGCGCCGGCUGGGCAACAUUCCGAGGGGACCGUCCCCUCGGUAAUGGCGAAUGGGACCCA [C19G] as the variant, how does the self-cleavage read?
**A.** 0.0688

**Q.** With GGCCGGCAUGGCCCCAGCCUCCUCGCUGGCGCCGGCUGGGCAACAUUCCGAGGGGACCGUCCCCUCGGUAAUGCCGAAUGGGACCCA [U12C G74C] as the variant, how does the self-cleavage read?
**A.** 0

**Q.** For GGCCGGCAUGGUCCCAGCCUCCUCGCUGGCGCAGGCUGGGCAACAUUCCGAGGUGACCGUCCCCUCGGUAAUGGCGAAUGGGACCCA [C33A G54U], which self-cleavage is on record?
**A.** 0.198

**Q.** With GGCCGGCAUGGUCCCAGACUCCUCGCUGGCGCCGGCUGGGCAACAUUCCGAGGGGACCGUCGCCUCGGUAAUGGCGAAUGGGACCCA [C18A C62G] as the variant, how does the self-cleavage read?
**A.** 0.135

**Q.** Which self-cleavage does the source give for GGCCGGCAUGGUCCCAGCCUCCUCGCUGGCGCCGGCUGGGCAACAUUCCGCGGGGACCGUCCCCUCGGUAAUGGCGAGUGGGACCCA [A51C A78G] here?
**A.** 0.751

**Q.** For GGCCGGCAUGGUCCCAGCCUCCUCGCUGGCGCCGGCUGGGCAACAUUCCGAGGGGACCGUCUCUUCGGUAAUGGCGAAUGGGACCCA [C62U C64U], which self-cleavage is on record?
**A.** 0.796

**Q.** With GGCCGGCAUGGUCCCAGCCUCCUCGCUGGCGCCGGCUGGGCAACAUUCCGAGGGGACCGUCCCCUCGGAAAUGGCGAAUGGGACCCG [U69A A87G] as the variant, how does the self-cleavage read?
**A.** 0.99

**Q.** For GGCCGGCAUGGUCCCAGCCUCCUCGCUGGCGCCGGGUGGGCAACAUUCCGAGGGGACCGUCCCCUCGGUAAUGACGAAUGGGACCCA [C36G G74A], which self-cleavage is on record?
**A.** 0.0779

**Q.** For GGCCGGCAUGGUCCCAGCCUCCUCGCUGGCGCCGGCUGGGCAACAGUCCGAGGGGACCGUCCCCUCGGUAAUGGUGAAUGGGACCCA [U46G C75U], which self-cleavage is on record?
**A.** 0.107

**Q.** With GGCCCGCAUGGUCCCAGCCUCCUCGCUGGCGCCGGCUGGGCAACAUUCCGAGUGGACCGUCCCCUCGGUAAUGGCGAAUGGGACCCA [G5C G53U] as the variant, how does the self-cleavage read?
**A.** 0.291

Reference: the RNAGym collection of RNA variant scans (doi:10.7554/elife.80360)
